Publication PMC13182210, “Time‐Resolved Native Mass Spectrometry Reveals Reversible Light‐Driven Oligomerization of Arabidopsis Cryptochrome 1 and Its Antagonism by BIC1” (Angewandte Chemie (International Ed. in English), 2026)
One block for each molecule: values may come before it.

B1: Blue-light Inhibitor of Cryptochromes 1 (BIC1) (natural protein, UniProt Q9LXJ1 1-140, looked up)
chain: MMNIDDTTSPMAHPIGPSQPPSDQTKQDPPSLPQEAASSVSADKKDLALLEEKPKQSQEEDRVDTGRERLKKHRREIAGRVWIPEIWGQEELLKDWIDCSTFDTCLVPAGISSARTALVEEARRAASASGGLHNRCLILR
notes: The calculated mass may include a tag; Construct details probably stand in the Supporting Information
B2: Arabidopsis thaliana cryptochrome 1 photolyase homology region (CRY1-PHR) (domain or fragment, UniProt Q43125 1-509, looked up)
chain: MSGSVSGCGSGGCSIVWFRRDLRVEDNPALAAAVRAGPVIALFVWAPEEEGHYHPGRVSRWWLKNSLAQLDSSLRSLGTCLITKRSTDSVASLLDVVKSTGASQIFFNHLYDPLSLVRDHRAKDVLTAQGIAVRSFNADLLYEPWEVTDELGRPFSMFAAFWERCLSMPYDPESPLLPPKKIISGDVSKCVADPLVFEDDSEKGSNALLARAWSPGWSNGDKALTTFINGPLLEYSKNRRKADSATTSFLSPHLHFGEVSVRKVFHLVRIKQVAWANEGNEAGEESVNLFLKSIGLREYSRYISFNHPYSHERPLLGHLKFFPWAVDENYFKAWRQGRTGYPLVDAGMRELWATGWLHDRIRVVVSSFFVKVLQLPWRWGMKYFWDTLLDADLESDALGWQYITGTLPDSREFDRIDNPQFEGYKFDPNGEYVRRWLPELSRLPTDWIHHPWNAPESVLQAAGIELGSNYPLPIVGLDEAKARLHEALSQMWQLEAASRAAIENGSEEG
notes: Cryptochrome 1 of Arabidopsis thaliana, photolyase homology region (PHR) domain; Construct limits, tags and host are not in the main text and probably stand in the Supporting Information; The oligomeric state depends on light: mostly monomer in the dark, tetramer under blue light; also called CRY1 PHR domain; wild-type CRY1; source: recombinant, purified

Columns and labels:
[1] = biological target: CRY1^L407F mutant of the Arabidopsis CRY1 PHR domain (Arabidopsis thaliana) (UniProt Q43125); test: SEC; analytical size exclusion chromatography, samples kept in darkness
[2] = biological target: CRY1^L407F mutant of the Arabidopsis CRY1 PHR domain (Arabidopsis thaliana) (UniProt Q43125); test: native MS; LILBID-MS in darkness; CRY1 alone or with BIC1 in an equimolar ratio
[3] = biological target: B2; test: native MS; quantitative LILBID-MS (qLILBID-MS), label-free, under blue light; mean of three measurements; settings: both partners purified
[4] = biological target: CRY1^L407F mutant of the Arabidopsis CRY1 PHR domain (Arabidopsis thaliana) (UniProt Q43125); test: native MS; quantitative LILBID-MS (qLILBID-MS), label-free, in the dark; mean of three measurements
[5] = biological target: B2; test: as above; settings: both partners purified
[6] = biological target: the molecule itself; test: native MS; LILBID-MS with a blue-light LED on the sample throughout; CRY1 alone, with BIC1 in an equimolar ratio, or BIC1 added to pre-illuminated tetrameric CRY1
[7] = biological target: the molecule itself; test: native MS; nESI-MS with a blue-light LED on the sample, static and time-resolved, room temperature, no ATP; two-step reversible kinetic model monomer to dimer to tetramer
[8] = biological target: the molecule itself; test: native MS; nESI-MS with a blue-light LED on the sample, static and time-resolved, with 100 µM ATP; two-step reversible kinetic model monomer to dimer to tetramer

- stoichiometry N [1]: 4
- stoichiometry N [2]: 4
Molecule: CRY1^L407F mutant of the Arabidopsis CRY1 PHR domain (from UniProt Q43125 1-681) (domain or fragment)

Molecule: B1
- Kd [3]: 130 ± 90 nM
- Kd [4]: 100 nM
- Kd [5]: ~1200 nM

Molecule: B2
- stoichiometry N [6]: 4
- half-life of tetramer formation (single-exponential fit) [7]: ~18 s
- fold decrease of dimer dissociation rate with 100 µM ATP against no ATP [8]: ~10 fold
- fold decrease of tetramer dissociation rate with 100 µM ATP against no ATP [8]: ~2 fold
- fold increase of dimer-to-tetramer association rate with 100 µM ATP against no ATP [8]: 4 fold
- fold increase of monomer-to-dimer association rate with 100 µM ATP against no ATP [8]: ~2 fold
